From patent US20260274910A1, “SINGLE FUSION PROTEIN AND PHARMACEUTICAL COMPOSITION” (MEDI&GENE INC., priority 2023, published 2026) come the findings set out here.

Data set [1] has as its system plasma proteins. As to the kind of experiment: Plasma protein binding test (PPB). In kind it is in vitro ADME, mice. The conditions noted are these: mouse plasma, 5 uM, 37° C., 4 hours, 100 kD filter, western blot. The protocol:
Such an increase in half-life was further confirmed by measuring plasma protein binding rates (Plasma protein binding test, PPB). […] Each of the plasma of the mice and the fusion protein (SEQ ID NO: 13), and or His tag-wild-type substance (1-81) (SEQ ID NO: 5) was incubated at a concentration of 5 uM at 37° C. for 4 hours. After that, they were centrifuged with a 100 kD filter to obtain fractions of the substance bound to the plasma proteins or fractions of the unbound substance. Each of the obtained fractions was evaluated by western blot.
On the technique in general: Immunoblotting shows a protein as a band on a membrane.

Data set [2] deals with Akt and S6 (phosphorylation, p-Akt/p-S6) in C2C12 mouse skeletal muscle cell line. The experiment in a line: Akt and S6 phosphorylation (western blot) in C2C12 muscle cells. The data set is classed as cell-based. The conditions noted are these: 2 hours. On the procedure:
In order to evaluate functions related to muscle loss diseases, each test substance was treated to the undifferentiated C2C12 mouse skeletal muscle cell line (mouse myoblast cell line) or the cell line in which differentiation into myotubes was completed. Differentiation of the cell line into myotubes was performed by conducting addition of 2% horse serum to culture medium and replacement with new medium every two days for a total of 4 days.
To the undifferentiated or differentiated cell lines, the test substances, fusion proteins (SEQ ID NOs: 1, 2, 3, 7, 14 and 15) were treated at a concentration of 100 nM (Control: PBS treated group) for 2 hours. Thereafter, the cells were immediately washed once and the cells were lysed with RIPA buffer (Radioimmunoprecipitation assay buffer). The activity of Akt and S6 (phosphorylation, p-Akt/p-S6) was observed by western blot. Akt phosphorylation is a well-known marker of activation of cell signaling pathways, and is an indicator of beneficial effects on muscle cells such as promotion of glucose metabolism and promotion of muscle biosynthesis. Similarly, S6 phosphorylation is a well-known marker of mTOR activity, and the activity of mTOR is an indicator showing muscle biosynthesis and various cell signaling pathways.

Data set [3] deals with follicular cells (dermal papilla cells). As to the kind of experiment: Follicular cell proliferation by MTT assay. In kind it is cell-based. As to conditions: 100 nM, 24 hours; compared with Control (PBS). On the procedure:
Whether the test substances of the present invention has effects on preventing hair loss or promoting hair growth was evaluated as follows. Specifically, it was observed whether they have efficacy of improving loss of follicular cells in scalp tissue which is a cause of hair loss, or hair growth due to an increase in hair follicles, by using dermal papilla cells and evaluating cell proliferation of follicular cells.
The follicular cells were treated with each test substance 100 nM (control: PBS) for 24 hours, and the degree of cell proliferation was evaluated by MTT assay.

Data set [4] has as its system 3T3-L1 adipocytes. The experiment in a line: Lipid droplet analysis (BODIPY 493/503, confocal) in 3T3-L1 adipocytes. In kind it is cell-based, mouse. As to conditions: differentiated 3T3-L1 adipocytes, 100 nM, 30 hours. On the procedure:
To observe the functionality of the fusion proteins related to lipid metabolism, the 3T3-L1 mouse pre-adipocyte cell line was used as the cell line itself (undifferentiated) or by differentiating into adipocytes. Differentiation into the adipocytes was performed by inducing primary differentiation for the 3T3-L1 cells in a medium containing DMEM, 10% FBS, 10 μg/ml insulin, 0.5 mM IBMX (3-Isobutyl-1-methylxanthine), and 1 μM dexamethasone for 2 days, and inducing secondary differentiation with a medium containing DMEM, 10% FBS, and 10 μg/ml insulin for the remaining 4 days. The adipocytes in which differentiation was finally completed were treated with the test substances at a concentration of 100 nM for 30 hours (Control: PBS) and then used for each test.
In addition, lipid droplets of adipocytes were stained with BODIPY 493/503 dye sample, and then confocal image scanning was performed to analyze the size and diameter of the lipid droplets.

The conditions of data set [5]: mouse, in vivo, 2.5 mg/kg.
Description: For evaluation, ten-week-old C57BL/6 mice were used, and the mice were reared in a specialized animal facility which provided a normal diet and a 12/12 hour night/day cycle and then used for experimentation.
The synthetic peptide (SEQ ID NO: 8) and fusion protein (SEQ ID NO: 13) were each injected into the mice at a concentration of 2.5 mg/kg, and blood was collected at 0, 0.5, 2, 4, 24 hours after injection. The collected blood was centrifuged and the obtained plasma was analyzed. At this time, in order to perform effective quantification of the substances, each substance was conjugated with Dylight 680 Near-Infrared dye (NIR) in advance prior to injection, and the finally collected blood samples were examined by observing fluorescent signals with a SpectraMax i3 microplate reader device.
The mark [6] stands for this setting: C2C12 differentiated into myotubes, 100 nM, control PBS.
The mark [7] stands for this setting: Table 6, C2C12, 100 nM, differentiation state not given.
Setting [8] is: undifferentiated C2C12, 100 nM, control PBS.

B1: His tag Human ATPIF1 (protein)
chain: MGSHHHHHHSSGLVPRGSHMGSDQSENVDRGAGSIREAGGAFGKREQAEEERYFRAQSREQLAALKKHHEEEIVHHKKEIERLQKEIERHKQKIKMLKHDD
notes: Recombinant protein: His tag-wild-type substance (1-81), control group
In the case of B1, in data set [1], the “Binding rate with the plasma proteins” value stood at 5%. In addition, in data set [2] (setting [6]), the “Activity (% increase compared to control) Differentiated Akt” value was found to be 248% and the “Activity (% increase compared to control) Differentiated S6” value is listed as 262%. Besides, in data set [2] (setting [7]), the “Activity (% increase compared to control) Akt” value came to 254% and the “Activity (% increase compared to control) S6” value worked out at 217%. In data set [2] (setting [8]), the “Activity (% increase compared to control) Undifferentiated Akt” value is reported as 165% and the “Activity (% increase compared to control) Undifferentiated S6” value is 207%. Further, in data set [3], the “Cell viability (MTT, cell proliferation)” value was “significantly increased”.

B2: Human ATPIF1 (peptide, listed as Homo sapiens)
chain: GSDQSENVDRGAGSIREAGGAFGKREQAEEERYFRAQSREQLAALKKHHEEEIVHHKKEIERLQKEIERHKQKIKMLKHDD
On to B2, for which, in data set [4], the Lipid droplet size result is “reduced at a significant level”, the “Maximum lipid droplet diameter per cell” value is given as “reduced at a significant level” and the “Total lipid droplet area” value is recorded as “reduced at a significant level”. This molecule also yielded a Half-life in data set [5] of 1.6 h.
